In experiment [1] the target is T1, AFP peptide on HLA-A*02:01 (human).
T1 peptide: FMNKFIYEI
The experiment in a line: killing.

For experiment [2], the target named is peptide on A2 positive (human). The experiment in a line: LDH release; CD8+ T cells, E:T 1:1; AFP-negative, A2-positive control cells. No unit is printed with the value.; fusion: antibody heavy chain variable region (Gln105Cys) on the beta chain, with free VL Ala43Cys. Conditions: chains Valpha:Vbeta.
In experiment [3] the target is … short peptide (AFP 158-166) presented on the HLA-A*0201 molecule. The experiment in a line: cell-based or functional assay.

B1: AFP TCR (TCR, V domains shown)
Valpha: SQQGEEDPQALSIQEGENATMNCSYKDRITNLQWYRQNSGRGLVHLILIRSNEREKHSGRLRVTLDTSKKSSSLLITASRAADTASYFCATDLEAEYKYIFGTGTRLKVLA
Vbeta: ETGVTQSPTHLIKTRGQQVTLRCSSQSGHNTVSWYQQALGQGPQFIFQYYRQVANGRGNFPPRFSGLQFPNYSSELNVNALELDDSALYLCASSKDAGPVFFGQGTRLTVV
Regarding B1, the binding result in experiment [1] was “recognises”. For the same molecule, the EC50 of fusion protein in killing in experiment [2] was 2700 nM.

B2: VH105-TCR β-AFP multi-domain bifunctional fusion molecule (other)
TCR alpha: SQQGEEDPQALSIQEGENATMNCSYKDRITNLQWYRQNSGRGLVHLILIRSNEREKHSGRLRVTLDTSKKSSSLLITASRAADTASYFCATDLEAEYKYIFGTGTRLKVLANIQNPDPAVYQLRDSKSSDKSVCLFTDFDSQTNVSQSKDSDVYITDKTVLDMRSMDFKSNSAVAWSNKSDFACANAFNNSIIPEDTFFCSPESS
chain: EVQLVESGGGLVQPGGSLRLSCAASGYSFTGYTMNWVRQAPGKGLEWVALINPYKGVSTYNQKFKDRFTISVDKSKNTAYLQMNSLRAEDTAVYYCARSGYYGDSDWYFDVWGCGTLVTVSSGGGGSETGVTQSPTHLIKTRGQQVTLRCSSQSGHNTVSWYQQALGQGPQFIFQYYRQVANGRGNFPPRFSGLQFPNYSSELNVNALELDDSALYLCASSKDAGPVFFGQGTRLTVVEDLKNVFPPEVAVFEPSECEISHTQKATLVCLATGFYPDHVELSWWVNGKEVHSGVSTDPQPLKEQPALNDSRYALSSRLRVSATFWQNPRNHFRCQVQFYGLSENDEWTQDRAKPVTQIVSAEAWGRAD
VL: DIQMTQSPSSLSASVGDRVTITCRASQDIRNYLNWYQQKPGKCPKLLIYYTSRLESGVPSRFSGSGSGTDYTLTISSLQPEDFATYYCQQGNTLPWTFGQGTKVEIKR
For the molecule B2, the “EC50 of CD8+ T cell killing (LDH release), HepG2 (A2 positive, AFP positive)” value in experiment [3] stood at 10.5 nM.

For the origin of these results see patent US20250289865A1 (TIOC THERAPEUTICS, published 2025).
